The source of these data is patent US20220324962A1.

For assay [1], the target named is full-length human MISRII (human) (UniProt Q16671). Kind of assay: cell-based or functional assay.
Assay [2] deals with active recombinant MIS (LRMIS) (human) (UniProt P03971). Kind of assay: sandwich ELISA: recombinant AMH (25 nM) captured on coated polyclonal anti-AMH, B10 titrated 666-0 nM, detected with anti-mouse Fc HRP.
Assay [3] shares this target. Kind of assay: cell-based or functional assay.

UniProt Q16671, sequence (Q16671 18-573): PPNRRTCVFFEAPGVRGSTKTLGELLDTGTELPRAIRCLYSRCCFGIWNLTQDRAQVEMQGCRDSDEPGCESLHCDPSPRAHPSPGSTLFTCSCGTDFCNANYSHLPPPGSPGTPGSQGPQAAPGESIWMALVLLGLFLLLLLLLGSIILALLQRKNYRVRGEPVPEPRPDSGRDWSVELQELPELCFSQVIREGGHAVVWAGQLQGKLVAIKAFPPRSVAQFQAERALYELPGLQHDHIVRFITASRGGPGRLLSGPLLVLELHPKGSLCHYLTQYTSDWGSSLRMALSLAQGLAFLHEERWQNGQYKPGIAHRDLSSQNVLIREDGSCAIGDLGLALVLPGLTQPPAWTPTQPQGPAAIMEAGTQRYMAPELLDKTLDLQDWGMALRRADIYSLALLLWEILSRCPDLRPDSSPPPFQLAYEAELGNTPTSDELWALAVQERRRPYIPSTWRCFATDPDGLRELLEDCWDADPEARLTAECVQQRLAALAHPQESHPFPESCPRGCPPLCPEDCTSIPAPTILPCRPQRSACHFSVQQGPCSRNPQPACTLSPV
UniProt P03971, sequence (P03971 26-560): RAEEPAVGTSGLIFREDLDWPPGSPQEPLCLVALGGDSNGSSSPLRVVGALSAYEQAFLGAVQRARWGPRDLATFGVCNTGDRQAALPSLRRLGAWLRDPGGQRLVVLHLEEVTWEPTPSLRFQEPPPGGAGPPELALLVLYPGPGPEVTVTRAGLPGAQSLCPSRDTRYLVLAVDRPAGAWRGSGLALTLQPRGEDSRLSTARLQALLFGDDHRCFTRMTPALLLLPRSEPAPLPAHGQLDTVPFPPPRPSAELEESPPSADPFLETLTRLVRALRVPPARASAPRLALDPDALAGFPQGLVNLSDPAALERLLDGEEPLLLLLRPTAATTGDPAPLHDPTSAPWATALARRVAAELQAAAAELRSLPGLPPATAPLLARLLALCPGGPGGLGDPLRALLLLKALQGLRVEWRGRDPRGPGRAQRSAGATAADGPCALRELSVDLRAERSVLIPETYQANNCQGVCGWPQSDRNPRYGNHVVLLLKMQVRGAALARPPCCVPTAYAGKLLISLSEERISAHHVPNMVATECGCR

In assay [1], “active recombinant MIS (LRMIS) (from UniProt P03971 26-560) (ligand)” yielded an Apoptosis, evaluated by measuring caspase-3/7 activity (COV434-MISRII cells) of 12.5 nM and an Apoptosis, evaluated by measuring caspase-3/7 activity (SKOV3-MISRII cells) of 6.3 nM.

B1: anti-MIS antibody B10 (antibody, V domains shown)
VH: EVQLVESGGSLVKPGGSLRLSCAASGFTFSNYNMNWVRQAPGKGLEWISDINGSSRSIYYADFVKGRFTISRDNATNSLYLQMNSLRAEDTAVYYCVRSSYYGGGMDVWGRGTLVTVSS
VL: QSVLTQPASVSGSPGQSITISCAGTSSDVGGYNYVSWYQQHPGKAPKLMIYYDSYRPSGVSNRFSGSKSGNTASLTISGLQAEDEADYYCSSYTDYSTRVFGGGTKLAVLG
With B1, the EC50 in assay [2] was found to be 50.4 nM. For the same molecule, in assay [3], the decrease in Caspase-3/7 activity induced by 25 nM MIS (fold change relative to untreated cells) was 40%.
